Test results: patent US7612163B1, “Prokineticin 2β peptide and its use” (Janssen Pharmaceutica N.V., priority 2004, dated 2009)
Ends that are not written are not given here.

Legend:
[1] = target: T1, human prokineticin receptor 1 (PKR1) (human, UniProt Q8TCW9 1-393); assay: cell-based or functional assay
[2] = target: T2, human prokineticin receptor 2 (PKR2) (human, UniProt Q8NFJ6 1-384); assay: cell-based or functional assay
[3] = target: T2, human prokineticin receptor 2 (PKR2); assay: radioligand competition against 100 pM 125I-PK2-f on COS-7 cells expressing PKR2
Method: (§1) Radio-Ligand Binding Assays. PKR1 and PKR2 in the expression vector pCIneo (Promega) were transfected into COS-7 cells using LipofectAmine (Invitrogen). Two days after transfection, cells were detached from the culture dishes by 10 mM EDTA in PBS, washed with Dulbecco's Modified Eagle's Medium (DMEM) and seeded in 96-well opaque polylysine-coated plates (BD Biosciences, San Jose, Calif.) at a density of 50,000 cells per well. […] The binding assays were performed in DMEM plus 50 mM HEPES, pH 7.2 and 1% bovine serum albumin in a final volume of 100 µl. The binding assays were carried out at room temperature for 1 hour. After the plates were washed three times with ice cold PBS, Microscint-40 (Packard, Meriden, Conn.) was added and the plates were counted on a Topcount (Packard).
(§2) Different concentrations of PK1, PK2 or PK2β were added to the assays as the competitors. All assays were performed in triplicates. The results are mean values (±S.E.M) of triplicates. Figure 4B:
(§3) Prokineticins bind PKR1 and PKR2 with different affinities. With the purified PK2β available, it was investigated whether PK2β binds PKR1 or PKR2 in comparison with PK1 and PK2. […] Membranes from COS-7 cells transiently expressing PKR1 and PKR2 were used in competition binding assays. The results (FIG. 4A) indicate that PK1, PK2, and PK2β all bind PKR1 with high affinities, with the rank order of potency PK2>PK2β≅PK1.

[4] = target: T1, human prokineticin receptor 1 (PKR1); assay: cell-based or functional assay; remark: listed apart in the source
[5] = target: T2, human prokineticin receptor 2 (PKR2); assay: cell-based or functional assay; remark: listed apart in the source
[6] = target: T1, human prokineticin receptor 1 (PKR1); assay: radioligand competition against 100 pM 125I-PK2-f on COS-7 cells expressing PKR1
Method: as §1, §2, §3

[7] = target: T2, human prokineticin receptor 2 (PKR2); assay: radioligand binding on PKR2 expressing cells
[8] = target: T1, human prokineticin receptor 1 (PKR1); assay: radioligand binding on PKR1 expressing cells
[9] = target: T3, PKR2 (Homo sapiens, UniProt Q8NFJ6); assay: Radioligand competition binding assay (125I-PK2-f), PKR2 expressing COS-7 cells; design: The full-length cDNA coding regions for both PKR1 and PKR2 were PCR-amplified from human fetal brain cDNA; expressed in transfected cells; host or cells: COS-7 (transient, pCIneo); conditions: FIG. 4B
T3 sequence (Q8NFJ6 whole entry): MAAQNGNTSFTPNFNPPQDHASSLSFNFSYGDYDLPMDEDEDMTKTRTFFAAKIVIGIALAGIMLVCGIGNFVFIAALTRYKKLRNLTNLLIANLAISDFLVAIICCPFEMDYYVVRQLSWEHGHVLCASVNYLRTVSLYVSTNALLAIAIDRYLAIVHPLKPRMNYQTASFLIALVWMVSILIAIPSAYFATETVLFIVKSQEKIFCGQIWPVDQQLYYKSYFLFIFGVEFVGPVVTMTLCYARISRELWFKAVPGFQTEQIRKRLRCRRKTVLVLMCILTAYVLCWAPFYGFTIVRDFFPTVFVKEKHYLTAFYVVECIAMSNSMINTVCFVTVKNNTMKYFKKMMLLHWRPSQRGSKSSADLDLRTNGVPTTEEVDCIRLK
Method: (§4) FIGS. 4A and 4B graphically illustrate that PKs bind the PKR1 and PKR2 with different affinities. COS-7 cells transiently expressing PKR1 or PKR2 were seeded to 96-well plates. ^125I-labeled PK2-f was added to each well at a final concentration of 100 pM. Different concentrations of PK1, PK2 or PK2β were added to the assays as the competitors. All assays were performed in triplicates. The results are mean values (±S.E.M) of triplicates. FIG. 4A provides the results of the binding assay using PKR1 expressing cells.
(§5) Expression, purification, and iodination of C-terminal FLAG-tagged PK2. C-terminal FLAG-tagged PK2 (PK2-f) was constructed as described (Soga et al., 2002). Two primers P9: ATCGAGAATTCGCCACCATGAGGAGCCTGTGCTGCGCCC (SEQ.ID.NO.:11) and P10: GGATCCCTACTTATCGTCGTCATCCTTATAATCCTTTTGGGCTAAACA (SEQ.ID.NO.:12) were used to amplify human whole brain cDNA (Clontech). The PCR-amplified PK2-f was cloned into a mammalian expression vector pCMV-sport1 (Invitrogen). The resulting clones were sequenced to confirm the identities and transfected into COS-7 cells using LipofectAmine (Invitrogen). Three days after transfection, the cell culture supernatant was collected and run through an ANTI-FLAG M2 agarose (Sigma) affinity column. The column was washed with PBS and eluted with […] Glycine HCl, pH 3.0. The eluted protein fraction was immediately neutralized with 1 M Tris-HCl, pH 8.0 and then further purified by reverse-phase HPLC using a C4 column (Vydac). The purified recombinant PK2-f protein was iodinated using Iodogen reagent (Pierce, Rockford, Ill.) and ^125I-NaI (PerkinElmer, Boston, Mass.) as described by Pierce. The iodinated PK2-f was purified by a G-50 (Amersham Pharmacia Biotech) gel filtration column.
(§6) Radio-Ligand Binding Assays. PKR1 and PKR2 in the expression vector pCIneo (Promega) were transfected into COS-7 cells using LipofectAmine (Invitrogen). […] After the plates were washed three times with ice cold PBS, Microscint-40 (Packard, Meriden, Conn.) was added and the plates were counted on a Topcount (Packard).

[10] = target: PKR1 (Homo sapiens, UniProt Q8TCW9); assay: Radioligand competition binding assay (125I-PK2-f), PKR1 expressing COS-7 cells; design: The full-length cDNA coding regions for both PKR1 and PKR2 were PCR-amplified from human fetal brain cDNA; expressed in transfected cells; host or cells: COS-7 (transient, pCIneo); conditions: FIG. 4A
PKR1, sequence (Q8TCW9 whole entry): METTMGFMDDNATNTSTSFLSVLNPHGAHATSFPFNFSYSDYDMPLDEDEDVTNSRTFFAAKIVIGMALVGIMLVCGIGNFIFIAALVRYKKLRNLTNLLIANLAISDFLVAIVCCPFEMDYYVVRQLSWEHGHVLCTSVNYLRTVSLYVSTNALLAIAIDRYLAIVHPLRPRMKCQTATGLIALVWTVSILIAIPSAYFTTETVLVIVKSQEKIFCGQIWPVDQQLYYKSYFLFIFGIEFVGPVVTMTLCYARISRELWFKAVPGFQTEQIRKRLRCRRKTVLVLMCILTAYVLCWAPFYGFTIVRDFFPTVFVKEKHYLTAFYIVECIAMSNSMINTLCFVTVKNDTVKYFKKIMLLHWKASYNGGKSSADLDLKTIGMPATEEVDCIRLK
Method: as §4, §5, §6

[11] = target: T3, PKR2; assay: cAMP accumulation (cAMP [125I] FlashPlate) in HEK 293 cells co-expressing PKR2/Gs; format: cell-based; design: The full-length cDNA coding regions for both PKR1 and PKR2 were PCR-amplified from human fetal brain cDNA; expressed in transfected cells; host or cells: HEK293 (transient, pCIneo, co-transfected with Gs plasmid); conditions: FIG. 8C
Method: FIGS. 8B and 8C illustrate results from HEK 293 cells co-expressing PKR1/Gs (FIG. 8B) or PKR2/Gs (FIG. 8C) stimulated with different PKs at various concentrations (the accumulated cAMP was measured by a cAMP [^125I] FlashPlate Assay kit; the results are mean values (±S.E.M) of triplicate experiments (legend: ▪, PK1; ▴, PK2; ▾, PK2β)).
In a different experiment, PKR1 and PKR2 in the expression vector pCIneo (Promega) were co-transfected with the Gs expression plasmid into HEK293 cells using LipofectAmine (Invitrogen). Two days after transfection, cells were detached with 10 mM EDTA in PBS, resuspended in Dulbecco's Modified Eagle's Medium/F12 (DMEM/F12) media, and then plated on 96-well plates at a density of 50,000 cells per well. Two hours after the seeding, cells culture medium was replaced with DMEM/F12 containing 2 mM isobutylmethylxanthine (Sigma) and incubated for 30 min. Different concentrations of PK1, PK2 or PK2β were added to cells and incubated for an additional 30 min in a final volume of 200 μl/well. The reaction was stopped and cAMP was extracted by adding 20 μl of 0.5 N HCl to each well. Cell culture media were tested for cAMP concentrations by the cAMP [^125I] FlashPlate Assay kit (PerkinElmer) as described by the manufacturer.

T2 sequence (Q8NFJ6 whole entry): as the sequence (Q8NFJ6 whole entry) above
T1 sequence (Q8TCW9 whole entry): as the sequence (Q8TCW9 whole entry) above

B1: human prokineticin 1 (PK1) mature peptide (ligand, UniProt P58294 20-105, looked up)
chain: AVITGACERDVQCGAGTCCAISLWLRGLRMCTPLGREGEECHPGSHKVPFFRKRKHHTCPCLPNLLCSRFPDGRYRCSMDLKNINF
notes: mature; also called EG-VEGF
[1]
  EC50 for Ca2+ mobilization in PKR expressing HEK 293 cells: 0.0011 µM
[2]
  EC50 for Ca2+ mobilization in PKR expressing HEK 293 cells: 0.0077 µM
[3]
  IC50: 0.0522 µM
[4]
  EC50 for stimulation of cAMP accumulation (β-galactosidase reporter), SK-N-MC cells: 0.00834 µM
  EC50 for stimulation of cAMP accumulation, HEK 293 cells: 0.0168 µM
[5]
  EC50 for stimulation of cAMP accumulation (β-galactosidase reporter), SK-N-MC cells: 0.02 µM
  EC50 for stimulation of cAMP accumulation, HEK 293 cells: 0.06 µM
[6]
  IC50: 0.0276 µM

B2: human prokineticin 2 (PK2) (ligand)
chain: AVITGACDKDSQCGGGMCCAVSIWVKSIRICTPMGKLGDSCHPLTRKVPFFGRRMHHTCPCLPGLACLRTSFNRFICLAQK
notes: Made in COS-7 cells with an N-terminal FLAG tag that was removed with enterokinase, then HPLC purified; also called mammalian Bv8
[1]
  EC50 for Ca2+ mobilization in PKR expressing HEK 293 cells: 0.0008 µM
[2]
  EC50 for Ca2+ mobilization in PKR expressing HEK 293 cells: 0.0036 µM
[3]
  IC50: 0.0064 µM
[4]
  EC50 for stimulation of cAMP accumulation (β-galactosidase reporter), SK-N-MC cells: 0.00127 µM
  EC50 for stimulation of cAMP accumulation, HEK 293 cells: 0.00317 µM
[5]
  EC50 for stimulation of cAMP accumulation (β-galactosidase reporter), SK-N-MC cells: 0.0121 µM
  EC50 for stimulation of cAMP accumulation, HEK 293 cells: 0.041 µM
[6]
  IC50: 0.0045 µM

B3: human PK2β mature peptide (ligand)
chain: AVITGACDKDSQCGGGMCCAVSIWVKSIRICTPMGKLGDSCHPLTRKNNFGNGRQE
modifications: ends and bridges not checked; cysteine pairing not given here
notes: Proteolytically processed form of PK2L secreted by COS-7 cells; The FLAG tag was removed with enterokinase; also called processed product of PK2L
[1]
  EC50 for Ca2+ mobilization in PKR expressing HEK 293 cells: 0.0015 µM
[2]
  EC50 for Ca2+ mobilization in PKR expressing HEK 293 cells: 0.08 µM
[4]
  EC50 for stimulation of cAMP accumulation, HEK 293 cells: 0.0234 µM
[5]
  EC50 for stimulation of cAMP accumulation, HEK 293 cells: > 1 µM
[6]
  IC50: 0.0346 µM

B4: 125I-labeled C-terminal FLAG-tagged PK2 (ligand)
chain: AVITGACDKDSQCGGGMCCAVSIWVKSIRICTPMGKLGDSCHPLTRKVPFFGRRMHHTCPCLPGLACLRTSFNRFICLAQK
modifications: 125I on the Tyr in the FLAG-tag
notes: Expressed from human PK2 cDNA with its own signal peptide and secreted by COS-7 cells; also called PK2-f; not shown: C-terminal FLAG tag
[7]
  binding result: binds
[8]
  binding result: binds

B5: 125I-labeled human PK1 (ligand, UniProt P58294 20-105, looked up)
chain: AVITGACERDVQCGAGTCCAISLWLRGLRMCTPLGREGEECHPGSHKVPFFRKRKHHTCPCLPNLLCSRFPDGRYRCSMDLKNINF
modifications: 125I at Tyr75
notes: mature; Told of only in the discussion, as an attempted radioligand
[7]
  binding result: binds
[8]
  binding result: binds

B6: prokineticin 1 (protein)
chain: AVITGACERDVQCGAGTCCAISLWLRGLRMCTPLGREGEECHPGSHKVPFFRKRKHHTCPCLPNLLCSRFPDGRYRCSMDLKNINF
notes: recombinant human PK1 mature peptide, also known as endocrine gland vascular endothelial growth factor
[9]
  Binding to PKR2, in words: high affinity
[10]
  Binding to PKR1, in words: high affinities
[11]
  cAMP accumulation in PKR2 expressing HEK293 cells, in words: high-potency ligands

B7: prokineticin 2 (protein)
chain: AVITGACDKDSQCGGGMCCAVSIWVKSIRICTPMGKLGDSCHPLTRKVPFFGRRMHHTCPCLPGLACLRTSFNRFICLAQK
notes: recombinant human PK2 peptide expressed in COS-7 cells
[9]
  Binding to PKR2, in words: high affinity
[10]
  Binding to PKR1, in words: high affinities
[11]
  cAMP accumulation in PKR2 expressing HEK293 cells, in words: high-potency ligands
